Measured values reported in patent US20160272693A1 (ZEALAND PHARMA A S, published 2016).
*1 amine or outer side, *2 acyl side, *3 side chain or, on linkers, in order; H or OH if unused. Bridges are numbered along the chain shown (N, C = ends). [ ]: non-standard residue; d: D form. The star is where a group is joined. C20 diacid = O=C(O)CCCCCCCCCCCCCCCCCCC(=O)*; γGlu = O=C(O)[C@H](CCC(=O)[*:2])N[*:1]; Hyp = O=C(O)[C@@H]1C[C@@H](O)CN1; NMeI = CC[C@H](C)[C@H](NC)C(=O)O; Aad = N[C@@H](CCCC(=O)O)C(=O)O; Orn = NCCC[C@H](N)C(=O)O; Sar = CNCC(=O)O

T1: human amylin receptor 3 (hAMYR3), hCTR2 co-expressed with human receptor activity modifying protein 3 (hRAMP3) (human, UniProt P30988 25-474; O60896 24-148)
T1 sequence (looked up) 1: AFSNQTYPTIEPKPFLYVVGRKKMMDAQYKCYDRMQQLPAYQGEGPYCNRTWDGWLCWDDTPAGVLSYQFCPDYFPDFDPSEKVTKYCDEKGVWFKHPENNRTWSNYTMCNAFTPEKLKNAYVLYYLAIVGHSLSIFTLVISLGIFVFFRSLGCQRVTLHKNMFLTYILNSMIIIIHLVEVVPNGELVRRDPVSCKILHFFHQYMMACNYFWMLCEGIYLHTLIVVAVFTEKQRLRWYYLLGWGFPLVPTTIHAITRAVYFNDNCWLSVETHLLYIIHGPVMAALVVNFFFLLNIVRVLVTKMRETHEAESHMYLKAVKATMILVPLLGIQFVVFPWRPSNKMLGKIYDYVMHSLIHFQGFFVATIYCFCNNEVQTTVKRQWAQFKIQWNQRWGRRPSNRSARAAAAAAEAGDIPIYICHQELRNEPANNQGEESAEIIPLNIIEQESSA
T1 sequence (looked up) 2: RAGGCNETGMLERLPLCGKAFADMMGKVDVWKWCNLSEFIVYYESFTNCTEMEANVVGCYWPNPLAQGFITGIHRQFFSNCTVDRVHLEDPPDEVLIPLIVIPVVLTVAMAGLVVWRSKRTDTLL

B1: [19CD]-isoGlu-R-C( )-GTAT-C( )-ATERLAHFLTRSSF-Gly(Me)-A-Ile(Me)-LSSTEVGS-Aad-T-Hyp-NH2 (Compd. 12) (peptide)
peptide: {C20 diacid}-[γGlu]RCGTATCATERLAHFLTRSSF[Sar]A[NMeI]LSSTEVGS[Aad]T[Hyp]-NH2
modifications: disulfide 3-8
SMILES: CC[C@H](C)[C@@H](C(=O)N[C@@H](CC(C)C)C(=O)N[C@@H](CO)C(=O)N[C@@H](CO)C(=O)N[C@H](C(=O)N[C@@H](CCC(=O)O)C(=O)N[C@H](C(=O)NCC(=O)N[C@@H](CO)C(=O)N[C@@H](CCCC(=O)O)C(=O)N[C@H](C(=O)N1C[C@H](O)C[C@H]1C(N)=O)[C@@H](C)O)C(C)C)[C@@H](C)O)N(C)C(=O)[C@H](C)NC(=O)CN(C)C(=O)[C@H](Cc1ccccc1)NC(=O)[C@H](CO)NC(=O)[C@H](CO)NC(=O)[C@H](CCCNC(=N)N)NC(=O)[C@@H](NC(=O)[C@H](CC(C)C)NC(=O)[C@H](Cc1ccccc1)NC(=O)[C@H](Cc1c[nH]cn1)NC(=O)[C@H](C)NC(=O)[C@H](CC(C)C)NC(=O)[C@H](CCCNC(=N)N)NC(=O)[C@H](CCC(=O)O)NC(=O)[C@@H](NC(=O)[C@H](C)NC(=O)[C@@H]1CSSC[C@H](NC(=O)[C@H](CCCNC(=N)N)NC(=O)CC[C@H](NC(=O)CCCCCCCCCCCCCCCCCCC(=O)O)C(=O)O)C(=O)NCC(=O)N[C@@H]([C@@H](C)O)C(=O)N[C@@H](C)C(=O)N[C@@H]([C@@H](C)O)C(=O)N1)[C@@H](C)O)[C@@H](C)O
B2: [19CD]-isoGlu-R-C( )-GTAT-C( )-ATERLAHFLTRSSF-Gly(Me)-A-Ile(Me)-LSSTEVGSGT-Hyp-NH2 (Compd. 13) (peptide)
peptide: {C20 diacid}-[γGlu]RCGTATCATERLAHFLTRSSF[Sar]A[NMeI]LSSTEVGSGT[Hyp]-NH2
modifications: disulfide 3-8
SMILES: CC[C@H](C)[C@@H](C(=O)N[C@@H](CC(C)C)C(=O)N[C@@H](CO)C(=O)N[C@@H](CO)C(=O)N[C@H](C(=O)N[C@@H](CCC(=O)O)C(=O)N[C@H](C(=O)NCC(=O)N[C@@H](CO)C(=O)NCC(=O)N[C@H](C(=O)N1C[C@H](O)C[C@H]1C(N)=O)[C@@H](C)O)C(C)C)[C@@H](C)O)N(C)C(=O)[C@H](C)NC(=O)CN(C)C(=O)[C@H](Cc1ccccc1)NC(=O)[C@H](CO)NC(=O)[C@H](CO)NC(=O)[C@H](CCCNC(=N)N)NC(=O)[C@@H](NC(=O)[C@H](CC(C)C)NC(=O)[C@H](Cc1ccccc1)NC(=O)[C@H](Cc1c[nH]cn1)NC(=O)[C@H](C)NC(=O)[C@H](CC(C)C)NC(=O)[C@H](CCCNC(=N)N)NC(=O)[C@H](CCC(=O)O)NC(=O)[C@@H](NC(=O)[C@H](C)NC(=O)[C@@H]1CSSC[C@H](NC(=O)[C@H](CCCNC(=N)N)NC(=O)CC[C@H](NC(=O)CCCCCCCCCCCCCCCCCCC(=O)O)C(=O)O)C(=O)NCC(=O)N[C@@H]([C@@H](C)O)C(=O)N[C@@H](C)C(=O)N[C@@H]([C@@H](C)O)C(=O)N1)[C@@H](C)O)[C@@H](C)O
B3: [19CD]-isoGlu-R-C( )-GTAT-C( )-ATERLAHFLTRSSF-Gly(Me)-A-Ile(Me)-LSSTEVGSFT-Hyp-NH2 (Compd. 10) (peptide)
peptide: {C20 diacid}-[γGlu]RCGTATCATERLAHFLTRSSF[Sar]A[NMeI]LSSTEVGSFT[Hyp]-NH2
modifications: disulfide 3-8
SMILES: CC[C@H](C)[C@@H](C(=O)N[C@@H](CC(C)C)C(=O)N[C@@H](CO)C(=O)N[C@@H](CO)C(=O)N[C@H](C(=O)N[C@@H](CCC(=O)O)C(=O)N[C@H](C(=O)NCC(=O)N[C@@H](CO)C(=O)N[C@@H](Cc1ccccc1)C(=O)N[C@H](C(=O)N1C[C@H](O)C[C@H]1C(N)=O)[C@@H](C)O)C(C)C)[C@@H](C)O)N(C)C(=O)[C@H](C)NC(=O)CN(C)C(=O)[C@H](Cc1ccccc1)NC(=O)[C@H](CO)NC(=O)[C@H](CO)NC(=O)[C@H](CCCNC(=N)N)NC(=O)[C@@H](NC(=O)[C@H](CC(C)C)NC(=O)[C@H](Cc1ccccc1)NC(=O)[C@H](Cc1c[nH]cn1)NC(=O)[C@H](C)NC(=O)[C@H](CC(C)C)NC(=O)[C@H](CCCNC(=N)N)NC(=O)[C@H](CCC(=O)O)NC(=O)[C@@H](NC(=O)[C@H](C)NC(=O)[C@@H]1CSSC[C@H](NC(=O)[C@H](CCCNC(=N)N)NC(=O)CC[C@H](NC(=O)CCCCCCCCCCCCCCCCCCC(=O)O)C(=O)O)C(=O)NCC(=O)N[C@@H]([C@@H](C)O)C(=O)N[C@@H](C)C(=O)N[C@@H]([C@@H](C)O)C(=O)N1)[C@@H](C)O)[C@@H](C)O
B4: [19CD]-isoGlu-R-C( )-GTAT-C( )-ATERLAHFLTRSSF-Gly(Me)-A-Ile(Me)-LSSTEVGS-Orn-T-Hyp-NH2 (Compd. 11) (peptide)
peptide: {C20 diacid}-[γGlu]RCGTATCATERLAHFLTRSSF[Sar]A[NMeI]LSSTEVGS[Orn]T[Hyp]-NH2
modifications: disulfide 3-8
SMILES: CC[C@H](C)[C@@H](C(=O)N[C@@H](CC(C)C)C(=O)N[C@@H](CO)C(=O)N[C@@H](CO)C(=O)N[C@H](C(=O)N[C@@H](CCC(=O)O)C(=O)N[C@H](C(=O)NCC(=O)N[C@@H](CO)C(=O)N[C@@H](CCCN)C(=O)N[C@H](C(=O)N1C[C@H](O)C[C@H]1C(N)=O)[C@@H](C)O)C(C)C)[C@@H](C)O)N(C)C(=O)[C@H](C)NC(=O)CN(C)C(=O)[C@H](Cc1ccccc1)NC(=O)[C@H](CO)NC(=O)[C@H](CO)NC(=O)[C@H](CCCNC(=N)N)NC(=O)[C@@H](NC(=O)[C@H](CC(C)C)NC(=O)[C@H](Cc1ccccc1)NC(=O)[C@H](Cc1c[nH]cn1)NC(=O)[C@H](C)NC(=O)[C@H](CC(C)C)NC(=O)[C@H](CCCNC(=N)N)NC(=O)[C@H](CCC(=O)O)NC(=O)[C@@H](NC(=O)[C@H](C)NC(=O)[C@@H]1CSSC[C@H](NC(=O)[C@H](CCCNC(=N)N)NC(=O)CC[C@H](NC(=O)CCCCCCCCCCCCCCCCCCC(=O)O)C(=O)O)C(=O)NCC(=O)N[C@@H]([C@@H](C)O)C(=O)N[C@@H](C)C(=O)N[C@@H]([C@@H](C)O)C(=O)N1)[C@@H](C)O)[C@@H](C)O
B5: [19CD]-isoGlu-R-C( )-NTAT-C( )-ATQRLAHFLHRF-Gly(Me)-A-Ile(Me)-LSSTEVGSETP-NH2 (Compd. 14) (peptide)
peptide: {C20 diacid-γGlu}-RCNTATCATQRLAHFLHRF[Sar]A[NMeI]LSSTEVGSETP-NH2
modifications: disulfide 2-7
SMILES: CC[C@H](C)[C@@H](C(=O)N[C@@H](CC(C)C)C(=O)N[C@@H](CO)C(=O)N[C@@H](CO)C(=O)N[C@H](C(=O)N[C@@H](CCC(=O)O)C(=O)N[C@H](C(=O)NCC(=O)N[C@@H](CO)C(=O)N[C@@H](CCC(=O)O)C(=O)N[C@H](C(=O)N1CCC[C@H]1C(N)=O)[C@@H](C)O)C(C)C)[C@@H](C)O)N(C)C(=O)[C@H](C)NC(=O)CN(C)C(=O)[C@H](Cc1ccccc1)NC(=O)[C@H](CCCNC(=N)N)NC(=O)[C@H](Cc1c[nH]cn1)NC(=O)[C@H](CC(C)C)NC(=O)[C@H](Cc1ccccc1)NC(=O)[C@H](Cc1c[nH]cn1)NC(=O)[C@H](C)NC(=O)[C@H](CC(C)C)NC(=O)[C@H](CCCNC(=N)N)NC(=O)[C@H](CCC(N)=O)NC(=O)[C@@H](NC(=O)[C@H](C)NC(=O)[C@@H]1CSSC[C@H](NC(=O)[C@H](CCCNC(=N)N)NC(=O)CC[C@H](NC(=O)CCCCCCCCCCCCCCCCCCC(=O)O)C(=O)O)C(=O)N[C@@H](CC(N)=O)C(=O)N[C@@H]([C@@H](C)O)C(=O)N[C@@H](C)C(=O)N[C@@H]([C@@H](C)O)C(=O)N1)[C@@H](C)O
B6: [19CD]-isoGlu-R-C( )-GTAT-C( )-ATERLAHFLHRSSF-Gly(Me)-A-Ile(Me)-LSSTEVGSNTP-NH2 (Compd. 15) (peptide)
peptide: {C20 diacid}-[γGlu]RCGTATCATERLAHFLHRSSF[Sar]A[NMeI]LSSTEVGSNTP-NH2
modifications: disulfide 3-8
SMILES: CC[C@H](C)[C@@H](C(=O)N[C@@H](CC(C)C)C(=O)N[C@@H](CO)C(=O)N[C@@H](CO)C(=O)N[C@H](C(=O)N[C@@H](CCC(=O)O)C(=O)N[C@H](C(=O)NCC(=O)N[C@@H](CO)C(=O)N[C@@H](CC(N)=O)C(=O)N[C@H](C(=O)N1CCC[C@H]1C(N)=O)[C@@H](C)O)C(C)C)[C@@H](C)O)N(C)C(=O)[C@H](C)NC(=O)CN(C)C(=O)[C@H](Cc1ccccc1)NC(=O)[C@H](CO)NC(=O)[C@H](CO)NC(=O)[C@H](CCCNC(=N)N)NC(=O)[C@H](Cc1c[nH]cn1)NC(=O)[C@H](CC(C)C)NC(=O)[C@H](Cc1ccccc1)NC(=O)[C@H](Cc1c[nH]cn1)NC(=O)[C@H](C)NC(=O)[C@H](CC(C)C)NC(=O)[C@H](CCCNC(=N)N)NC(=O)[C@H](CCC(=O)O)NC(=O)[C@@H](NC(=O)[C@H](C)NC(=O)[C@@H]1CSSC[C@H](NC(=O)[C@H](CCCNC(=N)N)NC(=O)CC[C@H](NC(=O)CCCCCCCCCCCCCCCCCCC(=O)O)C(=O)O)C(=O)NCC(=O)N[C@@H]([C@@H](C)O)C(=O)N[C@@H](C)C(=O)N[C@@H]([C@@H](C)O)C(=O)N1)[C@@H](C)O

Biological target: T1, human amylin receptor 3 (hAMYR3), hCTR2 …
Assay: cell-based or functional assay

Row | Binder | hAMYR3 EC50 (nM); cAMP induction [nM]
1 | {C20 diacid-γGlu}-RCNTATCATQRLAHFLHRSSF[Sar]A[NMeI]LSSTEVGSNTP-NH2 (disulfide 2-7) [[19CD]-isoGlu-R-C( )-NTAT-C( )-ATQRLAHFLHRSSF-Gly(Me)-A-Ile(Me)-LSSTEVGSNTP-NH2 (Compd. 16)] | 0.11
2 | B1 | 0.25
3 | B2 | 0.38
4 | B3 | 0.35
5 | B4 | 0.2
6 | B5 | 0.26
7 | B6 | 0.079
